Assay results published in US20190330334A1 (KAO, published 2019).
Ends that are not written are not given here.

Legend:
[1] = target: T1, PEGylated N-terminus 13 amino acids of inactive GIP (GIP(3-15)), antigen (2) for measurement (also: PEGylated, site not given here); test: ELISA, immobilized antigen, hybridoma culture supernatant
T1 construct: Immobilized on the ELISA plate; also called PEGylated GIP(3-15)
T1 peptide: EGTFISDYSIAMD
Protocol: (§1) The reaction between the hybridoma culture supernatant and the antigen (1) and (2) for measurement was evaluated by ELISA using immobilized antigen (1) and (2), and hybridomas that are positive for the antigen (1) and negative for the antigen (2) were selected as anti-active GIP monoclonal antibody-producing hybridomas.

[2] = target: T2, PEGylated N-terminus 15 amino acids of active GIP (GIP(1-15)), antigen (1) for measurement (also: PEGylated, site not given here); test: as above
T2 construct: also called PEGylated GIP(1-15)
T2 peptide: YAEGTFISDYSIAMD
Protocol: as §1

inactive GIP, GIP(3-42) = target: T3, inactive GIP, GIP(3-42); test: sandwich ELISA, anti-total GIP capture antibody, biotinylated m1 as detection antibody at 1 ug/mL
T3 peptide: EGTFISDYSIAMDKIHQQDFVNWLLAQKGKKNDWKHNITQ
Protocol: The reactivity between the monoclonal antibody prepared in Production Example 1 and active GIP was confirmed by ELISA. The amino group of the anti-active GIP monoclonal antibody was biotinylated with NH2 group biotinylation kit (manufactured by Dojindo Laboratories). ELISA was performed using the produced biotinylated anti-active GIP monoclonal antibody at 1 μg/mL instead of a detection antibody, GIP detection antibody (biotinylated anti-total GIP monoclonal antibody), included in Human (total) GIP ELISA kit (manufactured by EMD Millipore Corporation). A […] dilution series of GIP(1-42) or GIP(3-42) was prepared in 6 steps (8.2 to 2000 pg/mL) with a 2000 pg/mL solution as the highest concentration. By using an anti-total GIP monoclonal antibody (included in Human GIP (total) ELISA kit manufactured by EMD Millipore Corporation) as a capture antibody, the biotinylated anti-active GIP monoclonal antibody as a detection antibody, and a peroxidase-streptavidin conjugate for detection, sandwich ELISA was conducted to prepare a calibration curve with GIP concentration on the X-axis and 450 nm-590 nm absorbance on the Y-axis (FIG. 1).

B1: anti-active GIP monoclonal antibody produced by hybridoma 9B9H5-B9 line (Production Example 1) (antibody, V domains shown)
VH: QVQLQQPGAELVKPGASVKLSCKASGYTFTSFWMHWVIQRPGQGLEWIGEMNPSDGRTHFNEKFKTKATLTIDTSSNTAYMELNSLTSEDSAVYYCARRMEDWGQGTLVTVSA
VL: DIKMTQSPSSMYASLGERVTITCKASQDINSYLGWFQQKPGKSPKTLIYGANRLVDGVPSRFSGSGSGQDYSLTISSLEYDDMGIYYCLQYDEFPLTFGAGTKLELKR
notes: also called anti-active GIP antibody; anti-GIP antibody
binding result [1]: no binding | binding result [2]: binds | binding result (inactive GIP, GIP(3-42)): no binding (tested: 2000 pg/mL)
